# Data published in doi:10.1101/2024.12.18.629124.
# How the values were obtained:
# Assay in all cases: SPR
# [1] = target: GST-Staufen FL (Drosophila melanogaster) (UniProt P25159)
# [2] = target: Tm1 1-335 (Drosophila melanogaster)
# [3] = target: Staufen dsRBD3-4-L4 (aa 578-951) (Drosophila melanogaster) (UniProt P25159)
# [4] = target: Tm1 FL (Drosophila melanogaster)
Substance,Kd [1],Kd [3],further results
Khc-Tm1 complex (from UniProt P17210 1-975),13 nM,,
Staufen dsRBD3-4-L4 (aa 578-951) (from UniProt P25159 578-951) (domain or fragment),,,Kd [2]: 224 nM
Tm1 1-213 (domain or fragment),,495 nM,
Staufen dsRBD3-4-5-C-term (domain or fragment),,,Kd [4]: 152 nM
Tm1 1-335 (domain or fragment),386 nM,262 nM,
Tm1 1-213 L93Y (domain or fragment),,1420 nM,
Tm1 FL (natural protein),86.6 nM,,
